T1: HEPN domain of SACSIN (tag removed) (UniProt Q9NZJ4 4441-4579)
T1 sequence: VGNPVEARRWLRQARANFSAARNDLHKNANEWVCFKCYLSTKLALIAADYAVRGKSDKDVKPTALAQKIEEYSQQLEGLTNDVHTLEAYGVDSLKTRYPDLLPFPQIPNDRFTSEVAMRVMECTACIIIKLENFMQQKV


How the values were obtained:
[1] = target: T1, HEPN domain of SACSIN (tag removed); test: BLI; BLI: 20 mM potassium phosphate pH 7.4, 150 mM KCl, 0.05% Tween-20, 25 C; pull-down: PBS, 2 mM MgCl2, 0.2% NP-40, 0.05% BSA, RNase inhibitor, room temperature; conditions: protein: recombinant; tags: GST removed by thrombin; chain copies: 2; label: 5' biotin; 1 strand; two putative G-quadruplex-forming stretches
[2] = target: T1, HEPN domain of SACSIN (tag removed); test: BLI; 75 nM to 10 uM protein; BLI: 20 mM potassium phosphate pH 7.4, 150 mM KCl, 0.05% Tween-20, 25 C; pull-down: PBS, 2 mM MgCl2, 0.2% NP-40, 0.05% BSA, RNase inhibitor, room temperature; conditions: protein: recombinant; tags: GST removed by thrombin; chain copies: 2; label: biotin; 1 strand

Binder | Kd [1] [nM] | binding result [2]
CGGGGGCGGCGGCGGCGGCGGCGGCAGCGGGG (ssRNA) [GC-rich RNA 32 nt (predicted HEPN interacting RNA)] | 2600 ± 300 | –
AACCAACUUUCGAUCUCUUGUAGAUCUGUUCU (ssRNA) [non-GC-rich RNA 32 nt] | – | no binding

— paper PMC13669270, “The isolated HEPN domain of SACSIN exhibits RNA-binding activity”
